We go through two substances from paper PMC7416607.

Test [1] has as its target Peste-des-petits-ruminants virus haemagglutinin (H) protein of the Nigeria 75/1 strain, Hv-HA (Peste-des-petits-ruminants virus, strain Nigeria 75/1). Briefly: SPR. Background: Surface plasmon resonance follows binding to a sensor surface in real time, without labels.
Test [2] has the same target. Briefly: co-IP.
Test [3] has as its target poliovirus receptor-related 4 (ovis aries Nectin-4), Nectin 4-Myc (ovis aries). As to the kind of experiment: co-IP.

A word on the Kd: it is the equilibrium constant for the complex coming apart. The term koff denotes the first-order rate constant of dissociation. A higher koff goes with fast dissociation. The term kon denotes a measure of how fast the partners come together. For the substance “poliovirus receptor-related 4 (ovis aries Nectin-4), Nectin 4-Myc”, in test [1], the Kd was 306 nM, the koff worked out at 0.000435 s⁻¹ and the kon amounted to 1420 M⁻¹ s⁻¹. In test [2], the calibrated ratio of co-IP (percent of Hv and Nectin 4) turned out to be 100%.

For “Peste-des-petits-ruminants virus haemagglutinin (H) protein of the Nigeria 75/1 strain, Hv-HA (natural protein)”, the calibrated ratio of co-IP (percent of Hv and Nectin 4) in test [3] stood at 100%.
